For test [1], the target named is T1, 重组SARS-CoV-2刺突蛋白胞外区 (extra cellular domain of spike protein, S-ECD) (SARS-CoV-2), P0DTC2. In words: SPR, Biacore 8K, S-ECD immobilised on a CM5 chip, antibody injected at 125nM~7.8nM. The conditions noted are these: remark: other sources report otherwise. (In general: Surface plasmon resonance follows binding to a sensor surface in real time, without labels.)
Test [2] deals with T1, 重组SARS-CoV-2刺突蛋白胞外区 (extra cellular …). In words: indirect ELISA, S-ECD coated at 1μg/ml. The conditions noted are these: remark: other sources report otherwise. Background: In an ELISA, binding on a coated surface is turned into a signal by an enzyme label.

B1: FC05 (antibody)
chain 1: EVQLLEQSGAEVKKPGASVRVSCKVSGYTLPEVAMHWVRQAPGKGLEWMGGFDPEDGETIYAQKFQGRVTMTEDTSTDTAYMELSSLRSEDTAVYYCATTTPFSSSFWFDPWGQGTLVTVSS
chain 2: QSVLTQAPSVSGAPGQKVTISCSGSSSNIGNNYVSWYQQLPGTAPKLLIYDNNKRPSGIPDRFSGSKSGTSATLGITGLQTGDEADYYCGTWDSSLSAVVFGGGTKLTVL
The Kd is the concentration at which binding is half-saturated. Higher therefore signals a looser complex. In test [1], B1 yielded a Kd of 0.1 nM. This molecule also registered a 抗体滴度 (dilution 1:x from 1mg/mL) in test [2] of 320000.

(Values after patent publication CN111662379A.)
